Usually stoichiometry N stands for a count of units in the complex or per binding partner.

The assay has as its target semiSWEET. Put plainly: native MS.

Where only a bound is given, the exact number is not on record here.

As to semiSWEET (natural protein), the percent dimer was more than 95% and the stoichiometry N was found to be 2.

These data come from publication PMC10932606.
